Here are results for 9 molecules from patent US20250152729A1 (CANCER RESEARCH TECHNOLOGY, published 2025).

The labels stand for the following.
T1: recombinant human SEMA4A AviHis10, biotinylated (human, UniProt Q9H3S1 33-683, biotin on the Avi tag (BirA))
T1 construct: The text says amino acids 33-683 of Q9H3S1 with C-terminal Avi tag and His10 tag; also called avi-SEMA4A-His10
T1 sequence: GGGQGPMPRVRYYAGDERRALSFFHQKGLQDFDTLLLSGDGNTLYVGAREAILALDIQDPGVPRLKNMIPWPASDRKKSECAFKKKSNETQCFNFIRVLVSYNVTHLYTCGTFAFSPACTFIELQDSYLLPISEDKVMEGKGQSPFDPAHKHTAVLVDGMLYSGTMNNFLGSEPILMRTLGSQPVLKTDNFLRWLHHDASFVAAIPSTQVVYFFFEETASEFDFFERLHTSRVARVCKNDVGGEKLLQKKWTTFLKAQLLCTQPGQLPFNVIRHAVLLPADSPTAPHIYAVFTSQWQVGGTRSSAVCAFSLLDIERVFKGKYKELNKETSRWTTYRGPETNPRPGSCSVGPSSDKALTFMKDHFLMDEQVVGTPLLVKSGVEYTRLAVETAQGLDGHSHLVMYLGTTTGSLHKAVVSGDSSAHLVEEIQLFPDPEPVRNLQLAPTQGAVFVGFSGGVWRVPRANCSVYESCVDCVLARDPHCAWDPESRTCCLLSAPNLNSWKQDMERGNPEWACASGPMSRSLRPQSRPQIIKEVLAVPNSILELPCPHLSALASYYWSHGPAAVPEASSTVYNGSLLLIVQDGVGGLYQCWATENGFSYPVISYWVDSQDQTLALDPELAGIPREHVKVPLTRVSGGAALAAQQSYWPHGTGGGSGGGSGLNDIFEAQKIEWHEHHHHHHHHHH

T2: recombinant cynomolgus SEMA4A AviHis10, biotinylated (cynomolgus, UniProt Q9H3S1 32-677 (human entry), biotin on the Avi tag (BirA))
T2 construct: The text says amino acids 32-679 of G7NV79 with C-terminal Avi tag and His10 tag; also called Cyno SEMA4A AviHis10; cynoSEMA4A
T2 chain: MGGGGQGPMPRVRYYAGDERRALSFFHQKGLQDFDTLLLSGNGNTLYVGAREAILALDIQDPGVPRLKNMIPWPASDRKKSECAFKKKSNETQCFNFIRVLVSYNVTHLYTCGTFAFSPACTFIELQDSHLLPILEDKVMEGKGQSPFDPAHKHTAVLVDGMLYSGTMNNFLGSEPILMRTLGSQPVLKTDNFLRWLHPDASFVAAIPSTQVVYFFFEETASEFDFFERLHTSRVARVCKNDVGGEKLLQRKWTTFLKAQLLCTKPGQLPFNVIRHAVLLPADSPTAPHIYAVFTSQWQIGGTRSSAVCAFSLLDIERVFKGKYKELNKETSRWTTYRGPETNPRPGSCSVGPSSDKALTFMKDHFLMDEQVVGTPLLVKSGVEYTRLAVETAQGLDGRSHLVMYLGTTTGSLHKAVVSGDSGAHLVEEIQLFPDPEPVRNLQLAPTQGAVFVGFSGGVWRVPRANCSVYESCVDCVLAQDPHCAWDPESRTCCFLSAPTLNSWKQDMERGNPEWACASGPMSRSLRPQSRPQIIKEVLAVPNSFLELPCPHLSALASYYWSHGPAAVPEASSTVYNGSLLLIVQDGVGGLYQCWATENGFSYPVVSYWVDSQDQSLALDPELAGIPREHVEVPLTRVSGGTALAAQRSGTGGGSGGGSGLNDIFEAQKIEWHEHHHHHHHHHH

B1: C0120918 human Alya IgG1 (antibody, V domains shown)
VH: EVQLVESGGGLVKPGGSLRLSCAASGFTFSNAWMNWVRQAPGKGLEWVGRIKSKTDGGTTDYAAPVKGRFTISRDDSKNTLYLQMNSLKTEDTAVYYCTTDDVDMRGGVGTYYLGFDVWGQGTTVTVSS
VL: SYELTQPPSVSVSPGQTARITCSGDALPKQYAYWYQQKPGQAPVLVIYKDSERPSGIPERFSGSSSGTTVTLTISGVQAEDEADYYCQSADSSGTWVFGGGTKVTVL
notes: Fully human, phage display derived; human IgG1 Alya constant (239iCys, S442C, EU); unconjugated
B2: C0120903 human Alya IgG1 (antibody, V domains shown)
VH: EVQLVQSGAEVKKPGSSMKVSCKASGGTFNSYTINWVRQAPGQGLEWVGGFIPIFGTADYAQKFHGRVAITADESMSTAYMELSSLRSEDTAVYYCARAPLGSEPFDYWGQGTMVTVSS
VL: SYVLTQPPSVSVAPGQTARITCGGNNIGSKSVHWYQQKPGQAPVLVVYDDSDRPSGIPERFSGSNSGNTATLTISRVEAGDEADYYCQVWDSSSDHLVFGGGTKLTVL
notes: as for B1
B3: C0120914 human Alya IgG1 (antibody, V domains shown)
VH: QVQLQESGPGLVKPSETLSLTCTVSGGSVSSGRYDWSWIRQPPGKGLEWIGHIYYTGITDYNPSLRSRVTISADKPKNQFSLKLNSVTAADTAVYYCARGPFFDPWGQGTMVTVSS
VL: QSVLTQPPSVSVAPGQTASLTCGANNIGSKSVQWYQQKPGQAPVLVVYDGSDRPSGIPDRFSGSSSENTATLTISRVEAGDEADYYCQLWDSVTDRPVFGGGTKVTVL
notes: as for B1
B4: C0120906 human Alya IgG1 (antibody, V domains shown)
VH: EVQLVQSGPEVKKPGASVKISCKASGYKLNDPGVHGVSWVRQAPGQGLEWMGWISTLNGDTRYAQKFQGRVTMATDSSTSTIYMDLRSLKSDDTALYYCARDDYTAIFDFWGRGTLVTVSS
VL: QSVLTQPPSVSVAPGQTASITCGGSNIGSQSVHWYQQKPGQAPVLVVYDDSDRPSGIPERFSGSKSGNTASLILSRVEAGDEADYYCQVWDSSTDHHVFGTGTKVTVL
notes: as for B1
B5: C0120905 human Alya IgG1 (antibody, V domains shown)
VH: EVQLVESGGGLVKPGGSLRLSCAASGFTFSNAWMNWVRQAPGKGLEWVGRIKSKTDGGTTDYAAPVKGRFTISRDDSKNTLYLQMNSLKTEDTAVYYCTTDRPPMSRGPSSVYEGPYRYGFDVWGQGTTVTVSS
VL: NFMLTQPHSVSESPGKTVTISCTGSGGNIVDNFVQWHQQRPGSAPRTVIYEDDQRPSGVPDRFSASVDSSSNSGTLSISGLKTEDEADYYCQSYDGANRWVFGGGTKLTVL
notes: as for B1
B6: 5Hg1-5Lg1 human Alya IgG1 (antibody, V domains shown)
VH: QVQLVQSGAEVKKPGASVKVSCKASGYTFTDYWMHWVRQAPGQGLEWMGAIDTSDSYTSYNQKFKGRVTMTRDTSTSTVYMELSSLRSEDTAVYYCARDYGNFYYYAMDYWGQGTLVTVSS
VL: QAVVTQEPSLTVSPGGTVTLTCRSSTGAVTTSNYANWFQQKPGQAPRTLIYGTNNRAPWTPARFSGSLLGGKAALTLSGAQPEDEAEYYCALWYSNHWVFGGGTKLTVL
notes: Humanised 5E3; human IgG1 Alya constant (239iCys, S442C, EU), lambda light chain; purified, unconjugated
B7: 5Hg2-5Lg2 human Alya IgG1 (antibody, V domains shown)
VH: B6 VH with G44R, M70I, T76A, V79A
VL: B6 VL with S78L
notes: as for B6
B8: C0120917 human Alya IgG1 (antibody, V domains shown)
VH: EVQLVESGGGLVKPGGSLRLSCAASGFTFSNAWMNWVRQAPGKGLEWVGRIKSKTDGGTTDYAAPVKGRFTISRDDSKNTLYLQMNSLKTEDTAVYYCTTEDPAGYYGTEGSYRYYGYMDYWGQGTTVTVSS
VL: NFMLTQPHSVSESPGKTVTISCTASGDTLDNKYVNWYQVRPGSAPATLIFHYEERDSGVPDRFSGSFDASSNSASLTISGLQTADEADYFCQSYDSKRDNLVVFGGGTKVTVL
notes: as for B1
B9: mouse 5E3 expressed as human IgG1 Alya (antibody, V domains shown)
VH: QVQLQQPGAELVMPGASVKMSCKASGYTFTDYWMHWVKQRPGQGLEWIGAIDTSDSYTSYNQKFKGKATLTVDESSSTAYMQLSSLTSEDSAVYYCARDYGNFYYYAMDYWGQGTSVTVSS
VL: QAVVTQESALTTSPGETVTLTCRSSTGAVTTSNYANWVQEKPDHLFTGLIGGTNNRAPGVPARFSGSLIGDKAALTITGAQTEDEAIYFCALWYSNHWVFGGGTKLTVL
notes: Mouse variable domains on human IgG1 Alya constant (pEU1.22; 239iCys and S442C, EU numbering); purified, unconjugated; also called 5E3 IgG1 Alya

Broadly, the Kd is the equilibrium constant for the complex coming apart.

Residue numbers refer to the chain shown, from its start. Names and notes keep the numbering of the source.

In one assay the target is T1, recombinant human SEMA4A AviHis10, …. The assay is described as follows: BLI (OctetRED), biotinylated SEMA4A on streptavidin tip, IgG as analyte, 1:1 model; KD(observed) IgG. As for the experimental part: (§1) An Octet Kinetics buffer (PBS containing 0.01% (v/v) BSA and 0.002% (v/v) Tween20) is typically used as the diluent buffer for the analyte samples and as the flow buffer during the dissociation phase. The experimental data is recorded as shift in interference pattern (nm) over time, which is directly proportional to the optical thickness at the biosensor tip, which in turn is an approximate measure of the mass of analyte bound. The proprietary Octet Data Analysis software package can then be used to process data and fit binding models to the data sets. Returned association (ka, M-1 s-1) and dissociation (kd, s-1) rate constants allow calculation of dissociation (KD, M) affinity constants.
(§2) The affinity of binding between the analytes (humanised and phage display derived IgGs as human Alya IgG1s and Fabs) and human SEMA4A and cynomolgus SEMA4A, was estimated using assays in which the biotinylated SEMA4A antigen was captured on a streptavidin sensor tip. A fresh sensor tip was used for each measurement and no regeneration was used. A series of dilutions of the lead Fabs and human Alya IgG1s (3.25-240 nM) were individually placed in contact with the ligand surface for a sufficient amount of time to observe sensorgrams that could be fitted to an appropriate binding model with confidence (typically 5 minutes), followed by an appropriate length of dissociation time (typically 10 minutes). Blank reference (0 nM analyte) data were subtracted from each dataset to reduce the impact of any buffer artefacts or non-specific binding effects. A 1:1 binding model was then fitted simultaneously to the data from each analyte titration using the Octet Evaluation software (Table 8).
Regarding B1, the dissociation constant (Kd) stood at 9 nM.

For the molecule B2, the Kd was 6 nM.

For B3, the Kd was found to be 21 nM.

With B4, the Kd was 11 nM.

Consider B5, for which the dissociation constant Kd came to 10 nM.

Turning to B6, the Kd was no more than 2 nM.

Regarding B7, the dissociation constant Kd was no more than 2 nM.

With B8, the Kd turned out to be 14 nM.

The target of a further assay is T2, recombinant cynomolgus SEMA4A AviHis10, …. The assay is described as above. On the procedure:
as §1, §2
B1: the Kd was 9 nM.

As to B2, the dissociation constant (Kd) was 20 nM.

Regarding B3, the dissociation constant (Kd) came to 97 nM.

Take B9: the Kd is no more than 1 nM.

For the molecule B4, the Kd is 2 nM.

As to B5, the Kd stood at 9 nM.

Turning to B8, the dissociation constant Kd amounted to 6 nM.
